Assay results as given in publication PMC4453472, “First Glycoside Hydrolase Family 2 Enzymes from Thermus antranikianii and Thermus brockianus with β-Glucosidase Activity” (Frontiers in Bioengineering and Biotechnology, 2015).

Columns and labels:
Assay in all cases: purified protein
[1] = test system: T1, O=[N+]([O-])c1ccc(O[C@@H]2O[C@H](CO)[C@@H](O)[C@H](O)[C@H]2O)cc1; type: biochemical, Thermus antranikianii; conditions: 90°C, 20 mM citrate buffer pH 6.5, 0-10 mM substrate, 10 min
T1 construct: recombinant, pQE-80L (His-tag vector) in E. coli BL21 Star(DE3); heat precipitation and Ni-NTA

[2] = test system: T2, O=[N+]([O-])c1ccc(O[C@@H]2O[C@H](CO)[C@H](O)[C@H](O)[C@H]2O)cc1; type: biochemical, Thermus antranikianii; conditions: 90°C, 20 mM citrate buffer pH 6.5, 0-25 mM substrate, 10 min
T2 construct: recombinant, pQE-80L (His-tag vector) in E. coli BL21 Star(DE3); heat precipitation and Ni-NTA

purified protein [3] = substrate: O=[N+]([O-])c1ccc(O[C@@H]2O[C@H](CO)[C@@H](O)[C@H](O)[C@H]2O)cc1; conditions: 90°C, 20 mM maleate buffer pH 6.5, 0-10 mM substrate, 10 min
purified protein [4] = substrate: O=[N+]([O-])c1ccc(O[C@@H]2O[C@H](CO)[C@H](O)[C@H](O)[C@H]2O)cc1; conditions: 90°C, 20 mM maleate buffer pH 6.5, 0-25 mM substrate, 10 min

TaGH2 (Thermus antranikianii)
Km [1]: 730 ± 30 µM | Vmax [1]: 4028 ± 21 µmol/min/mg | kcat [1]: 21600 s⁻¹ | kcat/Km [1]: 2.95e+07 M⁻¹ s⁻¹ | Km [2]: 2200 ± 20 µM | Vmax [2]: 2615 ± 3 µmol/min/mg | kcat [2]: 14000 s⁻¹ | kcat/Km [2]: 6.36e+06 M⁻¹ s⁻¹

B1: TbGH2 (Thermus brockianus) (protein)
chain: RLKSALFLAHPAGEPEALPEEGWREVALPHQWTLEGLEAEVGWYRLTLPEGGPRRFLRSLGDYYQEAWLEGRFLGRHEGYFFPWLLELPPGKELYLRVSAPKEPLGQWPRFKRQIKGVLGQHDCRPGGVSPRGQERGTGGLWGGVEVVFREEVALLHLTHRLHPRPGGWRLLVRLLLDAPRPFAERVLLRLSPENFPGEAWTQEVGLRGDAGRGYREVVWDLPEMPLWEVWERGFPHLFRLEAELAQAQVSAPLGFRTVAWDEEGWLLLNGRRLFLRGTNHIPTQWLAAYSQALAEKDVALLKEAGLNAVRVHAHLTHPVFYEVCDREGVLVWQDFPLQWGYAPDEAFAEEAVRQVRAMVEHYGAHPSIYLWCAQNEPTHNRHALGPLLAAELRAQDPSRLVKEASDFREHPYPGWYWGHFRDFLALPGAPLPSEFGAQALPRAELLRRVLGEAAWPPKWEVWAYHNFQPHETFRVAGVEMGTSLESFVENSQAYQARLLSFAIHVYRRAKGKVVGYFQFLFAEPWEGITWAVLDVERIPKKGFHALKEASSPVLLSLVPYRERLEVGGVPLWEAWLVNDLERPLTLRVALALEGPVALPLWEGEVAVAGGEVRRFFSLGELWESPWEAQERLMRVAEALRRLPPGRYRLVGEAWEGERLWSRQVVELVYLEPLVPPGEAW
Km (purified protein [3]): 500 ± 20 µM | Vmax (purified protein [3]): 778 µmol/min/mg | kcat (purified protein [3]): 3900 s⁻¹ | kcat/Km (purified protein [3]): 7.8e+06 M⁻¹ s⁻¹ | Km (purified protein [4]): 3560 ± 70 µM | Vmax (purified protein [4]): 1333 ± 11 µmol/min/mg | kcat (purified protein [4]): 6680 s⁻¹ | kcat/Km (purified protein [4]): 1.88e+06 M⁻¹ s⁻¹
